For this assay, the target named is Ub subunit of the UbcH5c-O~Ub conjugate (UniProt P0CG48 1-76, C-terminus oxyester-linked to Ser85 of UbcH5c). The experiment in a line: NMR titration.

B1: UbcH5c subunit of the UbcH5c-O~Ub conjugate (Cys85Ser, S22R) (enzyme)
chain: not shown
modifications: active site Ser85 oxyester-linked to the Ub C-terminus
For B1, the binding result is listed as “binds”.

These data come from paper PMC3462262 (Molecular cell, 2012).
